Key:
[1] = molecular target: T1, fusion protein of a human IgG1 Fc domain and human LAP-TGFβ1 (human, UniProt P01137 30-390); assay: BLI (Octet)
T1 construct: printed both as Fc-huB1 and LAP-TGFβ-Fc; also called Fc-huB1; Fc-human LAP

[2] = molecular target: T1, fusion protein of a human IgG1 Fc …; assay: BLI, antibody on tip, 1:1 model
Experimental: (§1) Binding to human TGFβ1 of a subset of candidates was also tested by bio-layer interferometry (Octet). A streptavidin coated tip was equilibrated for 60 seconds in binding buffer (10 mM sodium phosphate, 150 mM sodium chloride, 1% bovine serum albumin, 0.05% sodium azide). The tip was then dipped in 10 μg/mL biotinylated antibody in binding buffer. After 15 seconds, the tip was washed in binding buffer for 60 seconds, and then dipped in 0-24 nM Fc-human LAP. Analyte association was measured for 5 minutes. The tip was transferred to binding buffer alone, and analyte dissociation was measured for 5 minutes. The association and dissociation data were fit to a 1:1 binding model.

[3] = molecular target: T1, fusion protein of a human IgG1 Fc …; assay: BLI, signal change on binding
Experimental: as §1

[4] = molecular target: T2, human LAP-TGFβ1 overexpressed on cells (human, UniProt P01137 30-390); assay: flow cytometry; black bar HT1080-huB1, grey bar HT1080
T2 construct: HT1080 or P3U1 cells overexpressing wild-type human LAP-TGFβ1; also called HT1080-huB1; HT1080-hβ1
Experimental: First, the ability of 22F9H0L0, HILO, H2L0, H3L0, H4L0, H5L0, H0L1, H1L1, H2L1, H3L1, H4L1, H5L1, H0L2, H1L2, H2L2, H3L3, H4L2, and H5L2 to bind to HT1080 cells overexpressing human TGFβ1 was tested by flow cytometry. HT1080 cells over-expressing human LAP-TGFβ1 were placed in a round-bottom 96-well plate at density of 40,000 cells/well. The cells were washed with FACS buffer (25 mM HEPES, 2 mM EDTA, 2% fetal bovine serum in Hank's Balanced Salt Solution). 50 μL of 1:200 diluted TruStain Human FcX (BioLegend) was added to each well, followed by 50 μL of 100 ng/μL of humanized 22F9 construct. The antibody was allowed to bind for 20 minutes. The cells were washed twice with FACS buffer. The cells were labeled for 15 minutes with Alexa647-anti Human IgG (Jackson Immunoresearch), washed twice with FACS buffer, and analyzed by flow cytometry.

[5] = molecular target: murine LAP-TGFβ1 overexpressed on cells (mouse, UniProt P04202 30-390); assay: cell-based or functional assay
[6] = molecular target: T2, human LAP-TGFβ1 overexpressed on cells; assay: cell-based or functional assay

T1 sequence (P01137 30-390 limits assumed): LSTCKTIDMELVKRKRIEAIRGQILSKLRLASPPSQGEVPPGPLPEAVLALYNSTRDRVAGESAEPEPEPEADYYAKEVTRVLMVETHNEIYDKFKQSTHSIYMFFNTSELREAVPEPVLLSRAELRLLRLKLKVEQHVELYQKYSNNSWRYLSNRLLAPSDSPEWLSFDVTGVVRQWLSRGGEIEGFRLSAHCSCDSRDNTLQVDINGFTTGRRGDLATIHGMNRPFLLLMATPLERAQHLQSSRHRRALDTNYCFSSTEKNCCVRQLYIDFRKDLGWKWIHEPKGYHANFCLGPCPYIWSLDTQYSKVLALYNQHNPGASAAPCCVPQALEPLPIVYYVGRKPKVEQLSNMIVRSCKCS
T2 sequence (P01137 30-390): as the sequence (P01137 30-390 limits assumed) above
Sequence of murine LAP-TGFβ1 overexpressed on cells (P04202 30-390): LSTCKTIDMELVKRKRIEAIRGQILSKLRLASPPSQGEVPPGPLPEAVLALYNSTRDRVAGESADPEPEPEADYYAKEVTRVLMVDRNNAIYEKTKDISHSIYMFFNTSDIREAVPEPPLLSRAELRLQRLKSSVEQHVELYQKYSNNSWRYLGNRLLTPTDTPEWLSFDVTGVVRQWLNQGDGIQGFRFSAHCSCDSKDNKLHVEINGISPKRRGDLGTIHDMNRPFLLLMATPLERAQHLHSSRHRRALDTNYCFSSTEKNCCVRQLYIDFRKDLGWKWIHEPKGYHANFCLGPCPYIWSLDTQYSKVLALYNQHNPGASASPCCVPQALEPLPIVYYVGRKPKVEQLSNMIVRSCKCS

Binder | Kd [2] [nM] | koff [2] [s⁻¹] | kon [2] [M⁻¹ s⁻¹] | Binding (nm) [3] [nm] | binding result [4] | further results
20E6_H3L1 (antibody, human IgG1, kappa) heavy: not shown light: DIQMTQSPSSLSASVGDRVTITCRASQDITNYLNWYQQKPGKAVKLLIYYTSRLHSGVPSRFSGSGSGTDYTLTISSLQPEDFATYFCQQGDTLPWTFGQGTKLEIKRTVAAPSVFIFPPSDEQLKSGTASVVCLLNNFYPREAKVQWKVDNALQSGNSQESVTEQDSKDSTYSLSSTLTLSKADYEKHKVYACEVTHQGLSSPVTKSFNRGEC | – | – | – | – | – | Kd [1]: 0.47 nM; koff [1]: 0.000702 s⁻¹; kon [1]: 1.48e+06 M⁻¹ s⁻¹
20E6_H4L1 (antibody, human IgG1, kappa) heavy: not shown light: DIQMTQSPSSLSASVGDRVTITCRASQDITNYLNWYQQKPGKAVKLLIYYTSRLHSGVPSRFSGSGSGTDYTLTISSLQPEDFATYFCQQGDTLPWTFGQGTKLEIKRTVAAPSVFIFPPSDEQLKSGTASVVCLLNNFYPREAKVQWKVDNALQSGNSQESVTEQDSKDSTYSLSSTLTLSKADYEKHKVYACEVTHQGLSSPVTKSFNRGEC | – | – | – | – | – | Kd [1]: 0.47 nM; koff [1]: 0.000729 s⁻¹; kon [1]: 1.56e+06 M⁻¹ s⁻¹
22F9_H5L0 (antibody, human IgG1, kappa) heavy: not shown light: DIQLTQSPSSLSASVGDRVTITCRASKSVSTSGYSYMHWYQQKPGKAPKLLIYLASNLESGVPSRFSGSGSGTDFTLTISSLQPEDFATYYCQHSRELPYTFGGGTKVEIKRTVAAPSVFIFPPSDEQLKSGTASVVCLLNNFYPREAKVQWKVDNALQSGNSQESVTEQDSKDSTYSLSSTLTLSKADYEKHKVYACEVTHQGLSSPVTKSFNRGEC | 3.35 | 0.0017 | 510000 | 0.13 | – | –
22F9_H4L0 (antibody, human IgG1, kappa) heavy: not shown light: DIQLTQSPSSLSASVGDRVTITCRASKSVSTSGYSYMHWYQQKPGKAPKLLIYLASNLESGVPSRFSGSGSGTDFTLTISSLQPEDFATYYCQHSRELPYTFGGGTKVEIKRTVAAPSVFIFPPSDEQLKSGTASVVCLLNNFYPREAKVQWKVDNALQSGNSQESVTEQDSKDSTYSLSSTLTLSKADYEKHKVYACEVTHQGLSSPVTKSFNRGEC | 1.63 | 0.00132 | 810000 | 0.057 | – | –
22F9_H3L1 (antibody, human IgG1, kappa, V domains shown) VH: QVQLVQSGAEVKKPGASVKVSCKASGYTFTSYWMHWVRQAPGQGLEWIGMIHPNSGSTNYNEKFKSRVTLTVDKSSSTAYMELSSLRSEDTAVYYCAYYDYDGFFDVWGQGTLVTVSS VL: DIQLTQSPSSLSASVGDRVTITCRASKSVSTSGYSYMHWYQQKPGKPPKLLIYLASNLESGVPSRFSGSGSGTHFTLTISSLQPEDFATYYCQHSRELPYTFGGGTKVEIKR | – | – | – | – | binds | –
22F9_H5L2 (antibody, human IgG1, kappa) heavy: not shown light: DIQLTQSPSSLSVSVGDRATITCRASKSVSTSGYSYMHWYQQKPGKPPKLLIYLASNLESGVPSRFSGSGSGTHFTLTISSVQPEDFATYYCQHSRELPYTFGGGTKLEIKRTVAAPSVFIFPPSDEQLKSGTASVVCLLNNFYPREAKVQWKVDNALQSGNSQESVTEQDSKDSTYSLSSTLTLSKADYEKHKVYACEVTHQGLSSPVTKSFNRGEC | 3.91 | 0.00246 | 629000 | 0.06 | – | –
22F9_H5L1 (antibody, human IgG1, kappa) heavy: not shown light: DIQLTQSPSSLSASVGDRVTITCRASKSVSTSGYSYMHWYQQKPGKPPKLLIYLASNLESGVPSRFSGSGSGTHFTLTISSLQPEDFATYYCQHSRELPYTFGGGTKVEIKRTVAAPSVFIFPPSDEQLKSGTASVVCLLNNFYPREAKVQWKVDNALQSGNSQESVTEQDSKDSTYSLSSTLTLSKADYEKHKVYACEVTHQGLSSPVTKSFNRGEC | 2.34 | 0.00122 | 519000 | 0.08 | – | –
22F9_H2L0 (antibody, human IgG1, kappa, V domains shown) VH: QVQLVQSGAEVKKPGASVKVSCKASGYTFTSYWMHWVRQAPGQGLEWIGMIHPNSGSTNYNEKFKSRVTLTVDTSTSTAYMELSSLRSEDTAVYYCAYYDYDGFFDVWGQGTLVTVSS VL: DIQLTQSPSSLSASVGDRVTITCRASKSVSTSGYSYMHWYQQKPGKAPKLLIYLASNLESGVPSRFSGSGSGTDFTLTISSLQPEDFATYYCQHSRELPYTFGGGTKVEIKR | – | – | – | – | binds | –
22F9_H2L1 (antibody, human IgG1, kappa, V domains shown) VH: QVQLVQSGAEVKKPGASVKVSCKASGYTFTSYWMHWVRQAPGQGLEWIGMIHPNSGSTNYNEKFKSRVTLTVDTSTSTAYMELSSLRSEDTAVYYCAYYDYDGFFDVWGQGTLVTVSS VL: DIQLTQSPSSLSASVGDRVTITCRASKSVSTSGYSYMHWYQQKPGKPPKLLIYLASNLESGVPSRFSGSGSGTHFTLTISSLQPEDFATYYCQHSRELPYTFGGGTKVEIKR | – | – | – | – | binds | –
H0L0 (antibody, human IgG1, kappa, V domains shown, also called 22F9_H0L0) VH: QVQLVQSGAEVKKPGASVKVSCKASGYTFTSYWMHWVRQAPGQGLEWMGMIHPNSGSTNYNEKFKSRVTMTRDTSTSTVYMELSSLRSEDTAVYYCARYDYDGFFDVWGQGTLVTVSS VL: DIQLTQSPSSLSASVGDRVTITCRASKSVSTSGYSYMHWYQQKPGKAPKLLIYLASNLESGVPSRFSGSGSGTDFTLTISSLQPEDFATYYCQHSRELPYTFGGGTKVEIKR | – | – | – | – | no binding (tested: single dose, 50 µL of 100 ng/µL) | –
H0L1 (antibody, human IgG1, kappa, V domains shown, also called 22F9_H0L1) VH: QVQLVQSGAEVKKPGASVKVSCKASGYTFTSYWMHWVRQAPGQGLEWMGMIHPNSGSTNYNEKFKSRVTMTRDTSTSTVYMELSSLRSEDTAVYYCARYDYDGFFDVWGQGTLVTVSS VL: DIQLTQSPSSLSASVGDRVTITCRASKSVSTSGYSYMHWYQQKPGKPPKLLIYLASNLESGVPSRFSGSGSGTHFTLTISSLQPEDFATYYCQHSRELPYTFGGGTKVEIKR | – | – | – | – | no binding (tested: single dose, 50 µL of 100 ng/µL) | –
H1L2 (antibody, human IgG1, kappa, V domains shown, also called 22F9_H1L2) VH: QVQLVQSGAEVKKPGASVKVSCKASGYTFTSYWMHWVRQAPGQGLEWIGMIHPNSGSTNYNEKFKSRVTMTVDTSTSTVYMELSSLRSEDTAVYYCAYYDYDGFFDVWGQGTLVTVSS VL: DIQLTQSPSSLSVSVGDRATITCRASKSVSTSGYSYMHWYQQKPGKPPKLLIYLASNLESGVPSRFSGSGSGTHFTLTISSVQPEDFATYYCQHSRELPYTFGGGTKLEIKR | – | – | – | – | no binding (tested: single dose, 50 µL of 100 ng/µL) | –
H0L2 (antibody, human IgG1, kappa, V domains shown, also called 22F9_H0L2) VH: QVQLVQSGAEVKKPGASVKVSCKASGYTFTSYWMHWVRQAPGQGLEWMGMIHPNSGSTNYNEKFKSRVTMTRDTSTSTVYMELSSLRSEDTAVYYCARYDYDGFFDVWGQGTLVTVSS VL: DIQLTQSPSSLSVSVGDRATITCRASKSVSTSGYSYMHWYQQKPGKPPKLLIYLASNLESGVPSRFSGSGSGTHFTLTISSVQPEDFATYYCQHSRELPYTFGGGTKLEIKR | – | – | – | – | no binding (tested: single dose, 50 µL of 100 ng/µL) | –
28G11_mIgG2a (antibody, V domains shown) VH: EVKLVESGGGLVQPGGSLSLSCAASGFTFTDYYMSWVRQPPGKALEWLGFIRNKPNGYTTEYSASVKGRFTISRDNSQSILYLQMNVLRAEDSATYYCARYTGGGYFDYWGQGTTLTVSS VL: DIQMTQTTSSLSASLGDRLTISCRASQDISNYLNWYQQKPDGTVKLLIYYTSRLHSGVPSRFSGSGSGTDYSLTISNLEQADIATYFCQQGDTLPWTFGGGTKLEIK | – | – | – | – | – | IC50 of inhibition of TGFβ1 activation [5]: 0.8 µg/mL; IC50 of inhibition of TGFβ1 activation [6]: 1.6 µg/mL

Second part, led by results:

Kd [2] [nM] | koff [2] [s⁻¹] | kon [2] [M⁻¹ s⁻¹] | Binding (nm) [3] [nm] | Binder | binding result [4] | further results
2.3 | 0.00137 | 598000 | 0.07 | 22F9_H4L2 (antibody, human IgG1, kappa) heavy: not shown light: DIQLTQSPSSLSVSVGDRATITCRASKSVSTSGYSYMHWYQQKPGKPPKLLIYLASNLESGVPSRFSGSGSGTHFTLTISSVQPEDFATYYCQHSRELPYTFGGGTKLEIKRTVAAPSVFIFPPSDEQLKSGTASVVCLLNNFYPREAKVQWKVDNALQSGNSQESVTEQDSKDSTYSLSSTLTLSKADYEKHKVYACEVTHQGLSSPVTKSFNRGEC | – | –
2.75 | 0.00214 | 778000 | 0.023 | 22F9_H3L0 (antibody, human IgG1, kappa, V domains shown) VH: QVQLVQSGAEVKKPGASVKVSCKASGYTFTSYWMHWVRQAPGQGLEWIGMIHPNSGSTNYNEKFKSRVTLTVDKSSSTAYMELSSLRSEDTAVYYCAYYDYDGFFDVWGQGTLVTVSS VL: DIQLTQSPSSLSASVGDRVTITCRASKSVSTSGYSYMHWYQQKPGKAPKLLIYLASNLESGVPSRFSGSGSGTDFTLTISSLQPEDFATYYCQHSRELPYTFGGGTKVEIKR | – | –

Source: patent US20220017612A1 (TILOS THERAPEUTICS, published 2022)
